Reference: paper doi:10.1101/2020.10.28.357137

Molecular target: SARS-CoV-2 Spike S2 protein fused to the pilot peptide CilPP, on S-EVs (SARS-CoV-2)
Test: non-reducing SDS-PAGE and Western blot

SARS-CoV-2 Spike S2 protein fused to the pilot peptide CilPP, on S-EVs (domain or fragment)
stoichiometry N: 3
